As a reminder, the Km is the substrate concentration at which the rate is half of its maximum.

Data set [1] can be described thus: Heat stability and stable pH of PenOX2 (residual activity). The settings on record: treated at each temperature for 10 minutes; residual activity at 37° C., pH 7.5; FIG. 9.
Protocol: 600 μL of an arbitrary buffer, 400 μL of a solution of 3.99 U/mL peroxidase, 1.8 mM 4-aminoantipyrine, and 2 mM TOOS dissolved in deionized water, and 150 μL of deionized water were incubated at an arbitrary temperature for 10 minutes. Then, 50 μL of the enzyme liquid preserved on ice and 400 μL of a solution of 2 mM pentosidine dissolved in a 100 mM potassium phosphate buffer (pH 8.0) incubated at an arbitrary temperature for 10 minutes were added thereto, and the mixture was stirred and reacted at an arbitrary temperature for 3 minutes. Time-dependent change in A555 during the reaction was measured in a spectrophotometer (U-3900, manufactured by Hitachi High-Tech Science Corp.). Time elapsed after the start of measurement—amount of change in A555 from 20 seconds to 60 seconds was regarded as an activity value.
The enzyme liquid treated at each temperature for 10 minutes was evaluated for residual activity by performing the activity measurement described above at a temperature of 37° C. using a 100 mM (final concentration) potassium phosphate buffer (final pH at the time of activity measurement: 7.5).
Data set [2] is described as follows: Pentosidine quantification test (DA-67/peroxidase, A658). The format is biochemical. The settings on record: 37° C., pH 7.0. As for the experimental part:
The following reagents were prepared, and pentosidine was measured using Bio Majesty JCA-BM1650 (manufactured by JEOL Ltd.).
0.2 μM, 0.4 μM, 0.6 μM, 1.0 μM, 2.0 μM or 4.0 μM pentosidine solution (prepared using the same pentosidine as in Example 2)
120 mM potassium phosphate buffer (pH 7.0)
0.2 mM DA-67 (10-(carboxymethylaminocarbonyl)-3,7-bis(dimethylamino)phenothiazine, sodium salt) (manufactured by FUJIFILM Wako Pure Chemical Corp.)
25 μL of each sample was added to 50 μL of the first reagent, and the mixture was incubated at 37° C. for 5 minutes. Then, 25 μL of the second reagent was added thereto, and pentosidine oxidation reaction mediated by PenOX2 and reaction for the detection of hydrogen peroxide produced through the reaction were allowed to proceed at 37° C. for 5 minutes.
In the reaction for the detection of hydrogen peroxide, DA-67 was oxidized, with concomitant consumption of […], into methylene blue which in turn developed color while absorbance (A658) was elevated. […] Elevation in A658 was able to be confirmed immediately after addition of the second reagent containing PenOX2.
Subsequently, the amount of elevation in A658 (ΔA) caused by the oxidation of pentosidine was calculated according to the following expression.
ΔA=(Absorbance 5 minutes after addition of the second reagent)−(Absorbance immediately before addition of the second reagent×0.75)

Data set [3] is described as follows: Method for measuring enzymatic activity (pentosidine oxidase activity, A555), Examples 9 and 10. It counts as biochemical. As for the experimental part: The amount of the enzyme that produced 1 μmol of hydrogen peroxide per minute at 37° C. was defined as 1 unit (U). The activity was calculated according to the following expression.
Each buffer was prepared as a 50 mM (final concentration) citric acid-100 mM potassium phosphate buffer (pH 4.0 to 7.5), a 100 mM (final concentration) potassium phosphate buffer (pH 6.5 to 8.0), and a 100 mM (final concentration) glycine buffer (pH 8.0 to 11.0). Enzyme reaction was performed at each pH at a temperature of 37° C. using these buffers. […] It was therefore concluded that the optimum pH of PenOX2 is pH 6.5 to 8.0 and is most preferably pH 7.5.
The activity of PenOX2 was measured at varying temperatures using a 50 mM (final concentration) potassium phosphate buffer (pH 7.5). […] It was thus concluded that the range of the optimum temperature of PenOX2 is from 37° C. to 50° C.
As mentioned above, both PenOX1 and PenOX2 had pentosidine oxidase activity. When the percent match between their amino acid sequences was examined using the BLAST program, the amino acid sequence homology therebetween was 38.2%. […] The amino acid sequence homology to PenOX1 and PenOX2 and pentosidine oxidase activity of each enzyme were as follows.

B1: PenOX2: protein having the amino acid sequence of SEQ ID NO: 4, pentosidine oxidase from a filamentous fungus of the genus Sarocladium (protein, listed as Sarocladium sp.)
chain: MFTPKAWIPLLALSREVFSNPTSASHSISFHGLLGVSSESVHNIHLTYGDAFPHGDFRVVFGDCGMTSEDELHHEVASLSTKMESAPDRLVWLVPKDVRENGCLHAFSEGVLLGRSEPVAFTEPLRKRESLSEIGDSDGLWFSGIRYLQSSNLTSVKAAEAKEKKIGIVGGGISGLMTSLLLTSVGMTNWHIIEATERVGGRIRTKYMNGTSPDDYQYQEMGPMRFPVEVKYNDTNETLPIQDHKMVFQLAEVLNEMNGNDTDLAVKFIPWTQNNPNTPANSRGYRLPDGRIPTAAQIAQNPSILPAAANASDPQDAELGKESLERLSDLTPERMRNISANIFKAHRDAIDRGLFHWSEAAYLRYQLGLDDDTVDFVAASDNYPMFPDWWHAVYFAATKWLTIDKGLDSLSRAFVPHVKDKITYGRKIEAMQWNESTSKISLSWRESPLAAAKSDEYDYAVVAVPFSKVRLWKRPAYSNLLTRAIGKLNYEQACKVALLYETRFWEHQEIPIFGGCGSVDIPGIGGVCYPSYEINSTRPGVILSSYITGTEARSVVALSEEDHVAMVQRAMVEVHGPMADEQWTGIYDRLCWEVDENAAGGWASPTVGQQELFIPAYHKTELNTIFIGEHTSITHGWIFSALESSVRGTTQLLLDLGLVDEAKQIVETWMARWITV
On to B1, for which the “heat stability (stable up to)” value in data set [1] is “around 30 °C”. Besides, the pentosidine oxidizing activity entry in data set [2] is listed as “exhibits pentosidine oxidizing activity”. Also, the “temperature at which the highest activity was exhibited” value in data set [3] (50 mM potassium phosphate buffer pH 7.5, FIG. 8) was “around 50 °C”. Moreover, the Km in data set [3] (37° C., pH 7.5, Lineweaver-Burk plot, FIG. 11, read-out: Km value for pentosidine (free form)) stood at 70 µM. Moreover, the “pH of highest activity” value in data set [3] (37° C., FIG. 7) came out at 7.5 pH.
